Data on two substances can be found in US6649364.

Data set [1] addresses α-actin purified from rabbit skeletal muscle, globular (G-actin) form (UniProt P68135).
Data set [2] has as its target DNase I (Sigma, St. Louis, Mo.). Kind of data set: cell-based or functional assay.

As for DNase I (Sigma, St. Louis, Mo.), in data set [1], the “DNase I digestion of plasmid DNA (agarose gel)” value was “preincubation of DNase I with intact actin (1.5 µg) for 5 minutes markedly reduced its ability to digest the plasmid”.

In data set [2], actin cleaved for 90 minutes by ICE registered a DNase I digestion of plasmid DNA (agarose gel): level of inhibition against diluted intact actin of 5 fold and a DNase I digestion of plasmid DNA (agarose gel): reduction in DNase I inhibition of 80%.
